Consider two molecules from US20080182978A1, “ANTI-NGF ANTIBODIES AND METHODS USING SAME” (RINAT NEUROSCIENCE CORP, priority 2002, published 2008).

Assay [1] deals with complete Freund's adjuvant (CFA)-induced chronic arthritis. The experiment in a line: CFA-induced chronic arthritis in rats, nociceptive response (vocalization test, Example 8). The assay is classed as in vivo, rat. To be noted: for nociceptive response (vocalization): arthritic rats, E3 1 mg/kg or 911 10 mg/kg i.v. D14+D19, indomethacin 3 mg/kg/day p.o. 10 days. The method, then:
[…]. Analgesic effects of E3 and 911 were evaluated by the measurement of nociceptive response. Anti-inflammatory effects were evaluated by paw volume, arthritis index (inflammation score), body and hindpaws weight. […].
Five groups of 10 animals (5-weeks old male Lewis rats-LEWIS Lew/Ico, from Charles River Laboratories—Belgium) each were included in this study: Group 1: non arthritic rats/saline (vehicle), i.v. bolus, n=10; Group 2: arthritic rats/saline (vehicle), i.v. bolus, n=10; Group 3: arthritic rats/Indomethacin 3 mg/kg, p.o daily over 10 days, n=10; […]; Group 5: arthritic rats/911, 10 mg/kg, i.v. bolus, n=10. The doses were expressed in terms of free active substance (mg/kg). E3 and 911 were extemporaneously prepared in saline from the stock solution to the desired concentration. […]. All diluted solutions (before i.v. injection) were sterilized using a sterile filter unit of 0.20.μm. pH and osmolarity values of diluted solutions were measured before each i.v. injection. Before the first i.v., osmolarity (mosm/L) for saline, E3, and 911 were 278, 269, and 308 respectively; pH for saline, E3, and 911 were 5.93, 6.76, 6.71 respectively. Before the second i.v., osmolarity (mosm/L) for saline, E3, and 911 were 280, 270, and 309 respectively; pH for saline, E3, and 911 were 5.86, 6.72, and 6.59 respectively.
E3 or 911 or saline were administered by i.v. bolus injection on Day 14 and Day 19 after arthritis induction in a coded and random order with a volume of 5 mL/kg. The non arthritic group was given by i.v. bolus injection of saline on Day 14 and Day 19 with a volume of 5 mL/kg. Indomethacin was extemporaneously prepared in 1% methylcellulose. Indomethacin was administered by oral route (p.o.) once daily over 10 days from Day 14 to Day 23 after arthritis induction in a coded and random order with a volume of 10 mL/kg.
On Day 0 (D 0), arthritis was induced in 70 rats by intradermal injection into the tail of 0.05 ml of a Mycobacterium butyricum suspension.
The nociceptive response was evaluated by gentle flexion of the right and left hindpaw repeatedly 2 times at intervals of 4 to 5 sec with a finger of the operator (arthritic rats). The intensity of the level of vocalization was recorded for each animal for each hindpaw (2 times: on right hindpaw: s1 and s3; 2 times: on left hindpaw: s2 and s4). This evaluation was performed at the following times (after induction of arthritis): Day 14 (before i.v. bolus or p.o. administration); Day 18 (before the second i.v. bolus injection or 1 hr after p.o. administration); and Day 24 (5 days after the last i.v. bolus injection or 24 h after the last p.o. administration). All measurements were performed between 9:00 and 12:00 am except at D 14 (7:30-9:00 am) and D 24 (7:30-9:00 am).
All results were reported as Mean ±S.E.M. of 10 rats in each group at each time point. Paw volume was expressed in ml calculated from the mean value of the right and left paw volume. Arthritis index was calculated from the sum of the score obtained for each of the 4 paws. The nociceptive response was evaluated by the intensity of the level of vocalization recorded for each animal (mean of 4 values: 2 times/paw) in mV. The percentage inhibition of the nociceptive response was calculated from the mean value of the vehicle-treated arthritic group [(mean value of vehicle-treated arthritic group−mean value of treated arthritic group/mean value of vehicle-treated arthritic group)*100]. Body weight was expressed in grams. Hindpaws (left and right) weight was expressed in grams. Cytokine levels (IL-6, IL-1β, TNF-α and TGF-β1) of each hind paw was expressed in pg/ml. Circulating levels of TGF-β1 was expressed in pg/ml. Radiological index for each parameter (demineralization, erosions, periostal reaction, soft tissue damage, space joint, osteogenesis deformity) and total radiological index (total score) were calculated from the sum of the scores obtained for each parameter. […]

Assay [2] shares this test system. The experiment in a line: CFA arthritis rats, hindpaw weight. To be noted: arthritic rats; E3 1 mg/kg or 911 10 mg/kg i.v. D14+D19, indomethacin 3 mg/kg p.o. over 10 days; D24. The assay is classed as in vivo, rat. The method, then: On Day 24 (5 days after the last i.v. bolus injection or 24 hours after the last p.o. administration) (after X-rays radiographies), each animal hindpaw (arthritic and non arthritic rats) was weighed and was collected in a labelled polyethylene vial. Tissue samples were frozen in liquid nitrogen and stored at −80° C.
All results were reported as Mean ±S.E.M. of 10 rats in each group at each time point. Paw volume was expressed in ml calculated from the mean value of the right and left paw volume. Arthritis index was calculated from the sum of the score obtained for each of the 4 paws. The nociceptive response was evaluated by the intensity of the level of vocalization recorded for each animal (mean of 4 values: 2 times/paw) in mV. The percentage inhibition of the nociceptive response was calculated from the mean value of the vehicle-treated arthritic group [(mean value of vehicle-treated arthritic group−mean value of treated arthritic group/mean value of vehicle-treated arthritic group)*100]. Body weight was expressed in grams. Hindpaws (left and right) weight was expressed in grams. Cytokine levels (IL-6, IL-1β, TNF-α and TGF-β1) of each hind paw was expressed in pg/ml. Circulating levels of TGF-β1 was expressed in pg/ml. Radiological index for each parameter (demineralization, erosions, periostal reaction, soft tissue damage, space joint, osteogenesis deformity) and total radiological index (total score) were calculated from the sum of the scores obtained for each parameter. The inter-group significances of the deviations between the values of vehicle-treated group (arthritic rats) and vehicle-treated group (non arthritic rats) were assessed by the Student t test or Mann-Whitney Rank Sum Test when equal variance or normality test failed. The inter-group significances of the deviations between the values of vehicle-treated group (arthritic rats) and E3- and 911- and Indomethacin-treated groups were assessed by the 1-way analysis of variance ANOVA followed by the non-paired Dunnett t test. A probability of P<0.05 was considered as significant. All statistical analysis was performed by the Sigmastat™ software.

Setting [3] is: E3 1 mg/kg or 911 10 mg/kg i.v. D14+D19, indomethacin 3 mg/kg/day p.o., D24.
[4] abbreviates: E3 1 mg/kg or 911 10 mg/kg i.v., indomethacin 3 mg/kg/day p.o., D14.
Setting [5] is: E3 1 mg/kg or 911 10 mg/kg i.v., indomethacin 3 mg/kg/day p.o., D18.

For `COc1ccc2c(c1)c(CC(=O)O)c(C)n2C(=O)c1ccc(Cl)cc1` [Indomethacin, reference compound], the “% inhibition of nociceptive response vs vehicle-treated arthritic group” value in assay [1] (setting [3]) stood at 74%; in assay [1] (setting [4]), 0%; in assay [1] (setting [5]) it was 71%. In addition, the “decrease of nociceptive response vs vehicle-treated arthritic group” value in assay [1] (setting [3]) was approximately −4353 mV; in assay [1] (setting [5]), “about −3768 mV”. Moreover, the “nociceptive response (vocalization)” value in assay [1] (D14 (before dosing)) is 4386±235 mV; in assay [1] (D18), 1511±398 mV; in assay [1] (D24), 1552±508 mV. The left hindpaw weight in assay [2] stood at 2.23±0.04 grams. For the same molecule, the right hindpaw weight in assay [2] turned out to be 2.20±0.05 grams.

B1: E3: humanized, affinity matured anti-NGF antagonist antibody; variable regions SEQ ID NO:1 and 2; human IgG2a (A330P331 to S330S331), kappa (antibody, V domains shown)
VH: QVQLQESGPGLVKPSETLSLTCTVSGFSLIGYDLNWIRQPPGKGLEWIGIIWGDGTTDYNSAVKSRVTISKDTSKNQFSLKLSSVTAADTAVYYCARGGYWYATSYYFDYWGQGTLVTVS
VL: DIQMTQSPSSLSASVGDRVTITCRASQSISNNLNWYQQKPGKAPKLLIYYTSRFHSGVPSRFSGSGSGTDFTFTISSLQPEDIATYYCQQEHTLPYTFGQGTKLEIKRT
modifications: human IgG2a constant (A330S/P331S) and kappa constant missing
Take B1: the “analgesic effects in arthritis model (conclusion)” value in assay [1] (E3 1 mg/kg i.v., 911 10 mg/kg i.v., D14+D19) is on record as “strong analgesic effects”. Further, the “% inhibition of nociceptive response vs vehicle-treated arthritic group” value in assay [1] (setting [3]) was determined as 100%; in assay [1] (setting [4]) it was 0%; in assay [1] (setting [5]) it was 79%. Besides, the “decrease of nociceptive response vs vehicle-treated arthritic group” value in assay [1] (setting [3]) is listed as approximately −5905 mV; in assay [1] (setting [5]), “about −4167 mV”. Further, the “nociceptive response (vocalization)” value in assay [1] (D14 (before dosing)) worked out at 4644±367 mV; in assay [1] (D18), 1112±401 mV; in assay [1] (D24), 0±0 mV. The left hindpaw weight in assay [2] is reported as 3.86±0.14 grams. Moreover, the right hindpaw weight in assay [2] is 3.72±0.13 grams.
